Test: soluble on expression in E. coli; label from the status in PepcDB or PDB records

Soluble on expression in E. coli, soluble:
MAKTLDSPGVLVVDFGGQYAHLIARRIRELGVYSEIVPATSLDALGEALPRAAGVVLSGGPGSVWGSRHDEAAAMVLQLGKPVLGICYGHQLLAKVLGGEVGRSPLPEFGPTEVEVLDYGILLNGLPSRFKVWMSHYDAVLRPPGEAKVLARTPGSPVAAMELWGRVFGVQWHPEVRHTQYGREVLDNWLSLVGAPRTWRPGDMVSELVESVKKEVGDALAVAAVSGGVDSTVAALIAKKAIGSRLYPVFIDHGLHPEGEVERVVKLLSRLGLEPVMVDAGEEFLAALEGVGDPEEKRRVVGRVYAEVLERAARDIGAEYLVQGTIYPDVIESGARPGADTIKTHHNVGGLPKDMRLKLVEPLRYFYKDEVRLLAEKLGVPRELIWKQPVPGPGLAVRVEGPITREKLRIVRRADAIVREEVEAAGLGGKLWQYFAVLTASMATGVRGDSRSYGYVVAVRAVESVDAMTAKPAELPWWLLERIARRITSEIPEVVRVVYDITSKPPSTIEWE
VAAAPRSPEDRRAQILDVAVRLLETVPFDDLSMDQVAAEAGVSPPLLFHYFKNKQGFRNAVLEASASELQRRMTPDAALPVSGQLRAGVETFADAVIEHPTIYLAVMRMAGSGDERMRQIYRGMRRTFTRWIGASLAEFGVPTTPALEAAISGWQAFMEEIVLSWLDEPTMDRTDMIDLCERAFYHLLPAAGVDVDALDVTR
SILEGGGVMNLNPGNNLLHQPPAWTDSYSTCNVSSGFFGGQWHEIHPQYWTKYQVWEWLQHLLDTNQLDANCIPFQEFDINGEHLCSMSLQEFTRAAGTAGQLLYSNLQHLKWNGQCSSDLFQSTHNVIVKTEQTEPSIMNTWKDENYLYDTNYGSTVDLLDSKTFCRAQISMTTTSHLPVAESPDMKKEQDPPAKCHTKKHNPRGTHLWEFIRDILLNPDKNPGLIKWEDRSEGVFRFLKSEAVAQLWGKKKNNSSMTYEKLSRAMRYYYKREILERVDGRRLVYKFGKNARGWRENEN
SMAPWGKRLAGVRGVLLDISGVLYDSGAGGGTAIAGSVEAVARLKRSRLKVRFCTNESAASRAELVGQLQRLGFDISEQEVTAPAPAACQILKERGLRPYLLIHDGVRSEFDQIDTSNPNCVVIADAGESFSYQNMNNAFQVLMELEKPVLISLGKGRYYAATSGLMLDVGPYMKALEYACGIKAEVVGKPSPEFFKSALQAIGVEAHQAVMIGDDIVGDVGGAQRCGMRALQVRTGKFRPSDEHHPEVKADGYVDNLAEAVDLLLQHADK
MFILSKIADLVRIPPDQFHRDTISAITHQLNNKFANKIIPNVGLCITIYDLLTVEEGQLKPGDGSSYINVTFRAVVFKPFLGEIVTGWISKCTAEGIKVSLLGIFDDIFIPQNMLFEGCYYTPEESAWIWPMDEETKLYFDVNEKIRFRIEREVFVDVKPKSPKERELEERAQLENEIEGKNEETPQNEKPPAYALLGSCQTDGMGLVSWWEHHHHHH
SLSSKDKDTVKALWGKIADKAEEIGSDALSRMLAVYPQTKTYFSHWKDLSPGSAPVNKHGKTIMGGIVDAVASIDDLNAGLLALSELHAFTLRVDPANFKILSHCILVLLAVKFPKDFTPEVHISYDKFFSALARALAEKYR
MTLSSAGGSRSHRHNGGHSERDVEIRILKDKVRSLTKEKISLQKELEYYKNEITKLLSPPYIEAVVLEVIDDNRVVVKSSTGPNLIVNVAAGVDARSLKPGAIVALNNRGSTIVDVLPGRYDPLVKAMEVEERPKVFFKDVGGLEEQIREIYEAVVLPIKNPHLFRELGIDPPKGVLLHGPPGTGKTLLAKAVAGETEATFIRVVGSELVNKFIGEGARLVREIFRLAREKAPSILFIDEIDAIASKRVDIGTSGDREVQRTMLQLLAELDGFDPLDNVKVIAATNRLDLIDPAVLRPGRFDRIIEVPLPSLRGRLEILGIHTRKAKMAPDVDLEAIAKLTEGFSGADLKAVVVEAGYNAIRRGSRVITMDDMIKAVEKVKAALDKRGGGDPFIRAQQKSGDDTIATVI
GQVQLVESGPGLVAPSQSLSITCTVSGISLSRYNVHWVRQSPGKGLEWLGMIWGGGSIEYNPALKSRLSISKDNSKSQIFLKMNSLQTDDSAMYYCVSYGYGGDRFSYWGQGTLVTVS
MTEKEKMLAEKWYDANFDQYLINERARAKDICFELNHTRPSATNKRKELIDQLFQTTTDNVSISIPFDTDYGWNVKLGKNVYVNTNCYFMDGGQITIGDNVFIGPNCGFYTATHPLNFHHRNEGFEKAGPIHIGSNTWFGGHVAVLPGVTIGEGSVIGAGSVVTKDIPPHSLAVGNPCKVVRKIDNDLPSETLNDETIK
MTDCEFGYIYRLAQDYLQCVLQIPQPGSGPSKTSRVLQNVAFSVQKEVEKNLKSCLDNVNVVSVDTARTLFNQVMEKEFEDGIINWGRIVTIFAFEGILIKKLLRQQIAPDVDTYKEISYFVAEFIMNNTGEWIRQNGGWENGFVKKFEPKSGWMTFLEVTGKICEMLSLLKQYC
MLENSKKLIMNFVLKYSKKKRQNSGINISEICKFFEHVPLSCAALGLATKKNFGGEICAFKERKIKNYCKIFEPKSALFQTPPPPLIVGVISGAH

Soluble on expression in E. coli, not soluble:
MGSDKIHHHHHHMTERTLRGQVAVVGVGESEYYRAGHAPDPEFRLLLKAVLAACRDADIDPADIDGFASFADDRNDAVRIATALGVKRLRSTTMQWGGGGGGCAAAVANGAAAIMSGMAQCVLVYRGLAQGQFGRFGQAAPRASISGEMAYQMPYGVLAPPQKFAMKVQRFMHEHGVRREALRAIALASYQHAQANPRAVMHGKPLTAEAYDASRWIVEPFRLFDCCMENDGAGALLLVAAERAKDFPHRPVYLLGAASGGDWRAAASPHNAPHYASANYSGVSGDLYRMARVSPADVGVVQSYENFTGGVAMALSEHGFFHPDEANDFLTPENLVAPSGKLPLNTSGGNLGECYVHGFELVIEAARQVRGESTSQAARHDVALVIGGPMVTPASSLLFGSAATL
MSEFSPLRRKILLGGAATAGLSLFPSFSFASQFAETPRKLALSNLHTGEELKTEYFNGRQYQSAELHKLNHLCRDFRRNESIEMDKRLFDQLSAIQNVIGCDTQVQIISGYRSPATNEMLRGKSHGGVAKKSLHMLGKAMDFRLEGVPLAEVRKAALSLKAGGVGYYPGSNFVHIDTGRVRFW
MDAQGLRLITALKLCILATKKDGTPLYSDREQYIFSELYGLEGNEIQNMISLGDKLGLSRERIRQLKVKVFKKFGILRKRNIPAIIDIDNLLTNNHQINLDEVHNFACYLKKFQESHLSEYPIETLFDLAQLYFKQDYSIIKTWKREIKETSTIFPKKQNSQLTDITNKIIWFDHVKSWTLEEIHQITPHRNYDPNKKYLESEAGEFYSNKLQRNVFYESMLEKKFYKRLEKSHEVIYYVEQGITITYDRGKYTPDAIVFLDDGKGFVVEIKPLTEMANQSVQKKFKALLDFCEETGLGATLTDGRTDINHIFETIPNLAFEESILQSLKEFKKLTYGKVNELKNKYQVTTIHLLQCIIKNNLSYNSMPTFIWKTKKPIICDLLLSPENKMLLKGSTDIINNDKTLEHHHHHH
MGHHHHHHSHMVNKNAGETLLQRAARLGYEEVVLYCLENKICDVNHRDNAGYCALHEACARGWLNIVRHLLEYGADVNCSAQDGTRPLHDAVENDHLEIVRLLLSYGADPTLATYSGRTIMKMTHSELMEKFLTDYLN
MGHHHHHHSHMVTASRYYPQLMSLVGNVLRFLPAFVRMKQLISEHYVGAVMICDARIYSGSLLSPSYGWICDELMGGGGLHTMGTYIVDLLTHLTGRRAEKVHGLLKTFVRQNAAIRGIRHVTSDDFCFFQMLMGGGVCSTVTLNFNMPGAFVHEVMVVGSAGRLVARGADLYGQKNSATQEELLLRDSLAVGAGLPEQGPQDVPLLYLKGMVYMVQALRQSFQGQGDRRTWDRTPVSMAASFEDGLYMQSVVDAIKRSSRSGEWEAVEVLTEEPDTNQNLCEALQRNNL
MGSDKIHHHHHHMTPRSGKTTAGHFRYARYLIESEDENHLVTAYNQEQAYRLFIDGDGTGLMHIFDGNCEIKHDERGDHLLITTPKGNKRVYYKGGGKVNSVGAITGMSLGSVVFCEINLLHMDFIQECFRRTWAAKLRYHLADLNPPAPQHPVIKDVFDVQNTRWTHWTMDDNPILTAERKQNIINSLKKNPYLYKRDVLGQRVMPQGVIYGLFDTEKNVLDALIGEPVEMYFCADGGQSDATSMSCNIVTRVRDNGRISFRLNRVAHYYHSGADTGQVKAMSTYALELKVFIDWCVKKYQMRYTEVFVDPACKSLREELHKLGVFTLGAPNNSKDVSSKAKGIEVGIERGQNIISDGAFYLVNHSEEEYDHYHFLKEIGLYSRDDNGKPIDKDNHAMDEFRYSVNVFVHRYYN
MGSDKIHHHHHHASEEDPWESINRPIFTFNDTLDTYALKPLAQGYQKVTPNFVQDGVHNFFNNLGDVKNLANNLLQAKFHNAGVDTSRLLFNSTFGLAGLIDVATPMGLQRNDEDFGQTLGYWGVGSGPYVMLPFLGPSTLRDAPAKIPDIYVSPYHYMDDVRARNVMFGINTVDTRANLLKSEKLISGDKYIFIRNAYLQNREFKVKDGEVEDDF
MSDYCSNDASPFGDYDLPSDEPSPKYQKLNKNIFSPLSPTFELKFQSKLRVSGNSTSSTTSDDSDDESLHRSNQLKHLETLFKESILRTSFSRPGVSNTSCDEKLDLVSEDEKKRLRNTEAARRCREKIKRKTDDLETELTRLTARNEVMNQHRIRLLSQVEEQMRMLENIKSRNPELEAEIRYEAKKIVDTYTHQVETKRKAIQDYFDMTCNKLY
AEPVKVGSKIDTEGALLGNMIQQVLESHGVKTINKIQLGTTPVVRGAIVAGELDIYPEYTGNGAFFFKDENDPAWKNAQQGYEKVKRLDQEKHQLVWLTPAPANNTWTIAVRQDLAEKNKLTSLADLSRYLKQGGEFKLAASAEFIERPDALPAFEKAYGFNLNQNQLLSLAGGDTAVTIKAAAQQTSGVNAAMAYGTDGPVAALGLQTLSDPQGVQPIYAPTPVVREAVLKAYPQIADWLQPVFASLDEKTLQQLNARIAVEGQDAKRVAADYLQQKGLLK
KPTAEVVPVNRGFHFQTNKVPSESDVFKHNYDLTFSLNFTNKSNDIYGTGWLFDWKGDEKALGIDGSFVPSITSNIDNSLLKDDQFTVYLATNLHVADALRNDQDYEPYKKDQNKQDFTENTKTEFFSLGKYLEGEQLKQYISKEENQSANQTDKALVSIQASNIPKTAYTATDFVDMNSYSYNNITTSLPGNYADFAVI
MEETSMGKLSICRQNVPMKSMPSRLPKIDQAGVARRLEALRDALGLDKGEFAQSFGLDPSSYSKVLQGKKPLKSEYGHAIAEGWGVSMDFIYRGDMSRIDETLRTKVMQNLTAPMR
MGSDKIHHHHHHLAVMPFSPDQIIRPEILALSAYHVPPACGMIKLDAMENPYPLPPELRDEIAKLAGETPVNRYPDPDAAALKAALREALSIPDGMDIMLGNGSDEIIQIIALACGKPGAVLMSVEPAFVMFRMIATFASMNYVGVPLHPDFSLDAEAMLAAIARYQPAVIFIAYPNNPTGNLFDAVEISRIIDAAPGVVVVDEAYHAFADASFMDKLAHHPNLLLMRTLSKLGMAGLRLGLLAGKPEWLRQLEKLRLPYNVGIVTQRIAEKLLQHRDVLLQQAAAIKLERSSMSRRLAELEGIEVFPTDANFILFRLNQDHKATQVFQELKQRGILVKNLDGAHPLLKNCLRVTVGMPDENAQFLEVLQTLLVKVEAKA

From the DeepSol protein solubility set
